Assay [1] has as its target FM-CnoX (fluorescein-5-maleimide-labeled CnoX) (E. coli) (UniProt P77395). Nature of the assay: fluorescence polarisation.
Assay [2] shares this target. Kind of assay: other fluorescence titration.
In assay [3] the target is GroEL (wild type, recombinant, from pET22b-groL) (E. coli) (UniProt P0A6F5). Kind of assay: SEC.

Consider two substances from publication PMC10044410.

For the substance “GroEL (untagged, from pET15b, for quantitative binding studies) (from UniProt P0A6F5 1-548) (natural protein)”, the Kd worked out at 310 nM in assay [1] and 350 nM in assay [2].

Take “CnoX (wild type, recombinant, from pET22b-cnoX) (from UniProt P77395 1-284) (natural protein)”: the stoichiometry N (CnoX per GroEL double ring) in assay [3] was determined as 1.
